From publication doi:10.1101/2024.04.11.589026 (bioRxiv, 2024)
Substitutions are numbered along the chain they refer to. Names and notes keep the numbering of the source.

T1: full-length mouse BICD2 (mouse), Q921C5
T1 chain: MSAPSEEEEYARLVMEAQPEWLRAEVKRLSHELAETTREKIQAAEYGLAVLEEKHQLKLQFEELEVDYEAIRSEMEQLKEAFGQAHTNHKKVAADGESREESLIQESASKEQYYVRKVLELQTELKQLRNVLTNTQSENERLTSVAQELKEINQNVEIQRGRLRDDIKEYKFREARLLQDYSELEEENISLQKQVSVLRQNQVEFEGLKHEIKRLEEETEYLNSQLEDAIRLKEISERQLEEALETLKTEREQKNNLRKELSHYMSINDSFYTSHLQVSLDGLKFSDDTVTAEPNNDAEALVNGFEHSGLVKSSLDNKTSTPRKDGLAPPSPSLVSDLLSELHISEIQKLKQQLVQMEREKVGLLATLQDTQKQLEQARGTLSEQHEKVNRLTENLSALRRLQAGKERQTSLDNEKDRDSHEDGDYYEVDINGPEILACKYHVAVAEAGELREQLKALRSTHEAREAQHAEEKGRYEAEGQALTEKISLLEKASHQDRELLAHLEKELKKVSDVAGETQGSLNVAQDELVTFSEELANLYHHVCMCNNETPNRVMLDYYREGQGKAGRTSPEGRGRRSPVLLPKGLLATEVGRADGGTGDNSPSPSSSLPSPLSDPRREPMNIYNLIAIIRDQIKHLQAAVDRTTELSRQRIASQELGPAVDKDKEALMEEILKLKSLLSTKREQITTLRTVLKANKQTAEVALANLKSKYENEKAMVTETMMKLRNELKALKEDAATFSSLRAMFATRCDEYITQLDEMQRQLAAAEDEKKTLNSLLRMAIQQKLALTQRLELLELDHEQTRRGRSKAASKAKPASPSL

B1: BICD2N (BICD2 residues 1-400) (domain or fragment)
chain: MSAPSEEEEYARLVMEAQPEWLRAEVKRLSHELAETTREKIQAAEYGLAVLEEKHQLKLQFEELEVDYEAIRSEMEQLKEAFGQAHTNHKKVAADGESREESLIQESASKEQYYVRKVLELQTELKQLRNVLTNTQSENERLTSVAQELKEINQNVEIQRGRLRDDIKEYKFREARLLQDYSELEEENISLQKQVSVLRQNQVEFEGLKHEIKRLEEETEYLNSQLEDAIRLKEISERQLEEALETLKTEREQKNNLRKELSHYMSINDSFYTSHLQVSLDGLKFSDDTVTAEPNNDAEALVNGFEHSGLVKSSLDNKTSTPRKDGLAPPSPSLVSDLLSELHISEIQKLKQQLVQMEREKVGLLATLQDTQKQLEQARGTLSEQHEKVNRLTENLSALR
B2: full-length mouse BICD2, Q921C5 1-820 (natural protein)
chain: T1 chain
B3: ScaC[50-159] (domain or fragment)
chain: LRKDIAEVSKLLCMLEKSTASSKNLTMRLQQSDTRENEQSNHIRLLITEIESINKENDCLRQKNNQLKIKLHQLKVKLEQALARNTDLQQILPKSQAEMDNLRKQNEQLK
B4: ScaC-AF647 (AF647-labelled ScaC-SNAP) (domain or fragment)
chain: VSNMNLDISNMGEAREGLRKDIAEVSKLLCMLEKSTASSKNLTMRLQQSDTRENEQSNHIRLLITEIESINKENDCLRQKNNQLKIKLHQLKVKLEQALARNTDLQQILPKSQAEMDNLRKQNEQLKIQLQQLQVKLQDLMSLQNKCSNLALINSVKLNYIRDIKYIALANIVIVKALASTFTEKLSKSNR
modifications: Alexa Fluor 647 on the SNAP tag
B5: ScaC passenger domain (residues 33-223), purified (domain or fragment)
chain: B4 chain
B6: CC3 of BICD1 (mouse BICD1 residues 713-802) (domain or fragment)
chain: YENEKAMVTETMTKLRNELKALKEDAATFSSLRAMFATRCDEYVTQLDEMQRQLAAAEDEKKTLNTLLRMAIQQKLALTQRLEDLEFDHE
B7: Strep-BICD2^711-800 L742A/L786A (domain or fragment)
chain: B6 chain with T13M, L32A, V44I, T66S, L76A, D84L, F87L
B8: Strep-BICD2^711-800 L742A (domain or fragment)
chain: B6 chain with T13M, L32A, V44I, T66S, D84L, F87L
B9: BICD2^711-800 (CC3 domain of BICD2) (domain or fragment)
chain: B6 chain with T13M, V44I, T66S, D84L, F87L
B10: Strep-BICD2^711-800 L786A (domain or fragment)
chain: B6 chain with T13M, V44I, T66S, L76A, D84L, F87L

What was measured:
[1] = target: BICD2C (BICD2 residues 342-800) (mouse, UniProt Q921C5 342-800); test: SEC
[2] = target: T1, full-length mouse BICD2 (mouse), Q921C5; test: SEC-MALS; conditions: remark: other sources report otherwise
full-length mouse BICD2 [3] = target: T2, full-length mouse BICD2 (mouse, UniProt Q921C5 1-820); test: SEC
[4] = target: BICD2-AF488 (AF488-labelled BICD2-SNAP) (mouse, UniProt Q921C5 1-820, Alexa Fluor 488 on the SNAP tag); test: single-molecule TIRF co-migration on microtubules
full-length mouse BICD2 [5] = target: T2, full-length mouse BICD2; test: SEC-MALS
SEC-MALS = target: the molecule itself; test: SEC-MALS
[6] = target: B5; test: SEC
[7] = target: B5; test: pull-down
[8] = target: Rab6^Q72L (GTP-locked Rab6 mutant) (human, UniProt P20340 1-208, Q72L); test: pull-down
Sequence of Rab6^Q72L (GTP-locked Rab6 mutant) (P20340 whole entry Q72L): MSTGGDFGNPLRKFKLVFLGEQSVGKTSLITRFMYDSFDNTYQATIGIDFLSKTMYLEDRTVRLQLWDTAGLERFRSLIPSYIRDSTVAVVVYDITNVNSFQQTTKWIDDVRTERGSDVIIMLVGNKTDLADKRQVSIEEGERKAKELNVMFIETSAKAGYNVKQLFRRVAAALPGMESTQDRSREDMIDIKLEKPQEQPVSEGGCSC

Binder: B1
binding result [1]: binds

Binder: B2
stoichiometry N [2]: 2

Binder: B3
binding result (full-length mouse BICD2 [3]): binds

Binder: B4
binding result [4]: binds

Binder: B5
stoichiometry N (full-length mouse BICD2 [5]): 1 ScaC chains per BICD2 chain (2:2) | stoichiometry N (SEC-MALS): 2

Binder: B6
binding result [6]: binds

Binder: B7
binding result [7]: binds

Binder: B8
binding result [7]: binds

Binder: B9
binding result [8]: binds | binding result [7]: binds

Binder: B10
binding result [7]: binds
